In the experiment the target is T1, cytosolic fragment of human STX4 (residues 1-271 with 272C) (human, UniProt Q12846 1-271).
T1 construct: human STX4 lacking the transmembrane domain, residues 1-271; synthetic gene in NdeI/XhoI of pET28a(+); cysteine at position 272 ('residues 1-271 with 272C')
T1 chain: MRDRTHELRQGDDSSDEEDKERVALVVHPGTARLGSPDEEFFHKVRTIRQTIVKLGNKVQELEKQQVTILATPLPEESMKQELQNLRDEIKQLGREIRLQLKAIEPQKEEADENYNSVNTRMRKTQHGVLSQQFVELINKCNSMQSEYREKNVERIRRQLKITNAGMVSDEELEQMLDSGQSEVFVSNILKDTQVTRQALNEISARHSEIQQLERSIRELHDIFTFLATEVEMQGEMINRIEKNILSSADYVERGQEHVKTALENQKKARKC
The experiment is described as follows: SEC; 100 mM (so in the source) of each protein mixed, overnight at RT; ENrich SEC 70 column in 20 mM HEPES pH 7.4, 100 mM NaCl, 0.2 mM TCEP, 1% CHAPS. Particulars: both partners purified. On the technique in general: Size exclusion chromatography separates by hydrodynamic size, large species first.

B1: VAMP2(49-96) (domain or fragment, UniProt P63045 49-96, looked up)
chain: NVDKVLERDQKLSELDDRADALQAGASQFETSAAKLKRKYWWKNLKMM
notes: VAMP2, C-terminal half of the SNARE motif, residues 49-96; construct described previously (Pobbati, Stein and Fasshauer, 2006); that fragment is, as far as I recall, from rat; also called C-terminal half of the SNARE motif of VAMP2 (residues 49-96)
Turning to B1, the binding result is “binds”.

Source of the values: paper doi:10.1101/2023.07.13.548819, “Trafficking Machinery is Rapidly Primed to Facilitate Polarised IL-6 Secretion in Dendritic Cells” (bioRxiv, 2023).
